Measurements reported in patent US20060115482A1, “Modifications of histone proteins as indicators of cell proliferation and differentiation” (The Regents of the University of California, priority 2004, published 2006).

How the values were obtained:
[1] = target: native nucleosomes purified from 0-6 h Drosophila embryos (H2B in nucleosomes) (Drosophila) (UniProt P02283)
[2] = target: recombinant histone H2B (unphosphorylated) (Drosophila) (UniProt P02283)
[3] = target: recombinant histone H2B (unphosphorylated) (Drosophila) (UniProt P02283); conditions: scale: % of the activity determined for TFIID, TAF1 and CTK

Work on “recombinant TAF1 (Flag(M2)-epitope tagged, immunopurified) (from UniProt P51123) (enzyme)” yielded a turnover value for phosphorylation of H2B-S33 (in vitro kinase assay, scintillation counting) [1] of 2.5 s⁻¹ and a turnover value for phosphorylation of H2B-S33 (in vitro kinase assay, scintillation counting) [2] of 2.5 s⁻¹.

In the case of “CTKΔATP (CTK polypeptide lacking the ATP binding motifs) (from UniProt P51123) (enzyme)”, the kinase activity (radiolabeled H2B cut from the gel, scintillation counting) [3] is reported as < 0.1.

“CTKΔ1600 (CTK polypeptide lacking the S/T-kinase motif) (from UniProt P51123) (enzyme)” was tested, and the kinase activity (radiolabeled H2B cut from the gel, scintillation counting) [3] was < 0.1.

“CTK(D1538A) (from UniProt P51123) (enzyme)” was tested, and the kinase activity (radiolabeled H2B cut from the gel, scintillation counting) [3] was < 0.1.

With “TAF1 COOH-terminal kinase domain (CTK; amino acids 1496-2132) (from UniProt P51123) (enzyme)” the turnover value for phosphorylation of H2B-S33 (in vitro kinase assay, scintillation counting) [1] was 2.6 s⁻¹ and the turnover value for phosphorylation of H2B-S33 (in vitro kinase assay, scintillation counting) [2] was 4.4 s⁻¹.

Substance “TFIID (endogenous Drosophila melanogaster TFIID, immunopurified) (from UniProt P51123) (enzyme)” has a turnover value for phosphorylation of H2B-S33 (in vitro kinase assay, scintillation counting) [1] of 3.3 s⁻¹ and a turnover value for phosphorylation of H2B-S33 (in vitro kinase assay, scintillation counting) [2] of 2.6 s⁻¹.
